# Test: soluble on expression in E. coli; label from the status in PepcDB or PDB records
row,Sequence,soluble on expression in E. coli
1,MNPALESLLADADLCVKCGLCSPHCPTYRQTADENESPRGRIALIQGWATGRLSLTAALRGPLDDCLLCRNCEAVCPAKVPYSRLVDRFRAETGQRRKPLEHHHHHH,not soluble
2,MDHQLSQHDIFISQDGQLQLTVAVDTETVWLTQAEICVLFDRERSVITKHINNVFKEGELERDSVCAIFARTADDGKTYQTQYFNLDVIISVGYRVKSKRGVQFRQWATNTLKQHLLQGYTLNQQRLVQRGIEFNQALALLSKTLTNQALINPDGQAVVNVIAEYARSWSLLQGYDEQSLTEITHKQQQMQPLALDEVLAAIAALKTNLIAKGEATDLFAQLRGNGLASSIATIEQGFGGEWFYPNVASRAAHLLYFIIKNHPFADGNKRTGSFLFLWYLQQNQHLLAKPVSEQINDTTLVALALLVAESLPDQKELMIRLIEHFILLKDSEAAALEHHHHHH,soluble
3,MKRVLVLGATGRTGNFVIKELSKYKSIQLIAGLRSQKDKERLPKINAAIETVVIDIADVCSLRKALTDSDIVVQAIRLRGDISENALIQLDQRIHQAFNPSRKTHLVTVGGAGALKLEANQRFWENEYFPRQTLPRGIAHARLRDYLEKSFFNHTWTYLIPPPVYVAEGARTGSYNRYSSAQKEDFFLSKSISYADFALAIGNAVMEEWQGVYLIAEKELEHHHHHH,not soluble
4,MSSDAISLRAAGPGDLPGLLELYQVLNPSDPELTTQEAGAVFAAMLAQPGLTIFVATENGKPVATATLLIVPNLTRAARPYAFIENVVTLEARRGRGYGRTVVRHAIETAFGANCYKVMLLTGRHDPAVHAFYESCGFVQNKTGFQIRQD,soluble
5,MGTVMIRNVYKGVHNMKLENGWETSFLEVVQNSEFKKEALLSQLLCQDSEEVEELVDDYGYEELVEREHDDELAEILGEELFSEMERQVFLSSNPEEKLISFVNGLGFHVLDWIVLLETEFGIDSANFTSDAVKVLEKRFRQFPYIEDKTIFDMTFGESMDVLESVTGLQLKEKMNV,not soluble
6,LGEALNIYTPHRIVAFDNSNIQGTNPVSAMIVFIDGKPYKKEYRKYKIKTVTGPDDYGSMREVVRRRYTRVLRENLPLPDLIIIDGGKGQINAARDVIENELGLDIPIAGLAKDEKHRTSNLLIGDPLEVAYLERNSQEFYLLQRIQDEVHRFAI,not soluble
7,MGSDKIHHHHHHMAKVRKEDKLPLRMKQLGKIYRLIEQFEEISRIDLSKLSQLAPATITSLTRELIEKKLVIERAVQNTENRGRPAVGLCVSPFYWQSLCATLTYDHFDILLCELDGTTIAQEVYPLDLSDLSSLEQMLPCYFEDFLSKVGTKLSRPITFSIAVAGKLHHLSGFLQRLGEIELNVDLTSLFAGYFDIPIIVTEYFETWLLAESTLGSVIGYDDVIFLQIDDVINLSVLSKGVILQSDHKTCMNIDQIIVPRLYPMQDKINQHLFELERYQIHNQLTYKAFCQFIDLYYPNNNLINTTEKINFLCKKAQLQDPLALEILANIADIIAYILSNLVNLFSPEKIMFTSRLLSVKHVFLNQINQRLAHYLHNSKICEVMTSQYEWNSHEVIAAAIKQKIYDGSLLVYMEKY,not soluble
8,INLPWYLSPIAIPVTQILSAVSPLPRYAPGHKPYFPKPFEDNPLSQSAGRYQWFRNLYTEKPELQVGGPSTRWVWQGLMAAKQCFLLTRQVKVPVLLVQAGNDRIVSNLAQKRFIEKLRKTNPHAALLSIEGAQHEILFETDQYRNQALDAIFRFMDDPTSSSDEKMQ,not soluble
9,MPPTGIFFNVNGKDIKEENVDPELTLAYYLRNKLGLRGTKLGCEEGVCGSCTVVLGTWDDSLNKAVYSAVNACLVPLFHVHKTFVITVEGVGSRDKIHPIQDRMARGHAVQCGFCSPGFVMSAYALLRNHPNPTIEQINAAIRANLCRCTGYRPILEALYSFSSSGGGCCGGKKAGAGCCKDLSSEDEAYEKLTSFNDFPEYDPSQEIIFPPSLRIFVDSENPVTLKGDRIELLLPKSIEQFKEFKKDRTVISSGLITRFIATRNPKEFSQKWITTKYVKEFNEVIENPETVVIGAAVNIQKMSDILSRSLSQNIGKEVDAFIKKFSSPQIANFATWTGGIVSGAKSSISVSDLLLLFNVLNAKLTLLTDSGDLTQVNIEEFVEKKLFATNTIVNTVFSSSITGQLFCLKLGETSEQDSTSFNFAALVGNNISRIFVGLGGPPKRLTSLEEHIFALKNLDVPDLCKTSGMGENKNIKIALTRLSKFMKNVEKTAETVDGLNYLQYFKPTERKSVGRPLANYFNERAITGEALYVNDIQTYNPVHLGFVLSTVPHAEILSIDATEALKLEGVVGFFGASDVPGNNSPGLQISNMNLPDDATIFADKKVESVGQVVGVIAANDVLLARRAAKLVKLEYKELPALVELKDAIVAKSLLGKVRHFGKSEYLVNESLVHSYKVLEGESSLGSQEHFYLETQSSLNYRIVHCSTQGTSFTQLMVAETMKIPAHKIIVKTKRMGGAFGGKLNNASWIACICSVVAKKLNRPTYGVGINSDGKVQGIHHQAWLNGGWSKDHTEGVTMVMGQFVDDVYNMGTVRYDGYPVKTNTNSNTAFRGYGNPQAKLVSEGVMRRIAREVGKSTEEVKKLNFAFEGEKRYLSGNIYSDAHIECWEYCTRWSDFEKRKETIENFNKTSKIVKRGIAMSSVRLALSHPGPPGHGVASLMINLDGSIQLSIGGTEMGQGLNQKMLQVCSEALKRPIDTITIVDCSTDKITNAPETGASHNADTNGLAVLACCERIMSRLQPIIDKNDGDWEKSIRDAYGAYVPLQCTEYGSVDREKLSIGEFEYPYNTTGACAVEMEVDTMTGYNRLLRVDIVMDVGESLNPAIDIGQIEGAFMQGYGLVTCEKITFNKETGQLNQNSAGQYKIPKSSDVPKDFRVKLLGINKANGAKVYSSKGIGEPPLMMSCGAVHSCIMNCIDDWRKENGIDKFVDTISPLSADKIQELCSCNN,not soluble
10,MSLRILVNGLLPLDSGKTTFSLSIIRLFNQVGIRLFPFKPIAGHNAWYSFNTLIRSEELGILVGNDALKYYDETKYDIRRINPFAVLFVPIDLEKISYNVSLYNMIMEYGFPYLIRLSDCINGTDQYFVNSSADIYVPKSMLKFTRNLALKFNAKLYDKMREIIDASPQLVDNCTIDVFRNYENVIIESYNDSASPTYNSTNVDYVFTVSPTKAFLIKGQEFKKALSLFSIPPWNVRVSTLMKYLKIGKSFEIDVGERVAKDEILDILLKSEGHHHHHH,not soluble
11,MVKQIESKTAFQEALDAAGDKLVVVDFSATWCGPCKMIKPFFHSLSEKYSNVIFLEVDVDDCQDVASECEVKCMPTFQFFKKGQKVGEFSGANKEKLEATINELV,soluble
12,MSLYKKYLLLGVSLCMLNACNESKSVSLEGSLDGIQADSIYLYQVDNEHYGSVKLIKSIAVTDGRFAYPTDSIQAGLYCFSLQNMERGEYLQQYANLFLEPKSMQLTLGKDKYDQLSLHATGSALQEQYEALQEAKYVAGNRMVLDSLDHMFYEAREKGDREEMERIREVSSPYYESASEQTRKLINGEIAKNKGSYFGLYLYYTYRFQNHTFNTVEEIDEARNFIGSFDEASRRSGIYVKMQEGLDKFARCATGSVAPAITGIDLKGNSVSLNDFKGKYVLVDFWFAGCSWCRKETPYLLKTYNAFKDKGFTIYGVSTDRREEDWKKAIEEDKSYWNQVLLQKDDVKDVLESYCIVGFPHIILVDPEGKIVAKELRGDDLYNTVEKFVNGAKEGHHHHHH,soluble
13,VPKLVDHDERRRSITAAAWRLIAARGIEAANMRDIATEAGYTNGALSHYFAGKDEILRTSYEHISEATDRRIAEALGDATGLDALRILCREVMPINEEQLLEARIAASLWPRAMYDEQMAATNRRTMDNWREQMAIFLEQAREEGSVGDIDVTIVVEQLLNMMMGMQILGVLTPGETSSERQLEMLEQFVAAL,soluble
14,MTKRLFLPEWAPQEAVQLTWPHDRTDWAYMLDEVETCFVRIATAILRHERLIVVCPDRKRVFGLLPPELHHRLYCFELPSNDTWARDHGGISLLADGRPMIADFAFNGWGMKFAAHHDNLITRRLHALGLFAEGVTLDNRLAFVLEGGALETDGEGTLLTTDSCLFEPNRNAGLSRTAIIDTLKESLGVSRVLSLRHGALAGDDTDGHIDTLARFVDTRTIVYVRSEDPSDEHYSDLTAMEQELKELRRPDGQPYRLVPLPMAEALYDGADRLPATYANFLIINGAVLVPTYDSHLDAVALSVMQGLFPDREVIGIDCRPLVKQHGSLHCVTMQYPQGFIRLEHHHHHH,soluble
15,MGSDKIHHHHHHMENVSSVTSDGSVADVHAERWQELLARLDADAPDIAEGTAAKLLATIPGYELVDAGPIRESSIRNTALIIRVINAGTEPKAEDLPEALRLADERIAQNVPLGSVLHGFRMSLGEILEHLVQLGPEYNIDPGRMLRWSTLMWAVNDAFSTRATRVYRDHEVATAIADSVRRSEWIGKAVSEGSELSELLWGAAMYDVPADTPLRALAATSPDHAKAETQIQKWTQRAGVRVLASVQPSVIVGIVIGEPKRNVDGPGFAVGLGRAEVLSKLADSYKDASLVLKAADNLKLNEVQRAQDLSWKLAIHASPRVTEILAQKYVKPLRESGEFAHEIVESLRAYVDNQMNIPAAARSIPVHVNTLRYRLRRFEELTGCYLEDTSTVIEVSWVLEVFGREL,not soluble
16,MAVTNVAELNALVERVKKAQREYASFTQEQVDKIFRAAALAAADARIPLAKMAVAESGMGIVEDKVIKNHFASEYIYNAYKDEKTCGVLSEDDTFGTITIAEPIGIICGIVPTTNPTSTAIFKSLISLKTRNAIIFSPHPRAKEATNKAADIVLQAAIAAGAPKDLIGWIDQPSVELSNALMHHPDINLILATGGPGMVKAAYSSGKPAIGVGAGNTPVVIDETADIKRAVASVLMSKTFDNGVICASEQSVVVVDSVYDAVRERFASHGGYMLQGQELKAVQNVILKNGALNAAIVGQPAYKIAELAGFSVPETTKILIGEVTVVDESEPFAHEKLSPTLAMYRAKDFEEAVEKAEKLVAMGGIGHTSCLYTDQDNQPERVAYFGQMMKTARILINTPASQGGIGDLYNFKLAPSLTLGCGSWGGNSISENVGPKHLINKKTVAKRAENMLWHKLPKSIYFRRGSLPIALDEVITDGHKRALIVTDRFLFNNGYADQITSVLKAAGVETEVFFEVEADPTLSVVRKGAELANSFKPDVIIALGGGSPMDAAKIMWVMYEHPETHFEELALRFMDIRKRIYKFPKMGVKAKMIAVTTTSGTGSEVTPFAVVTDDATGQKYPLADYALTPDMAIVDANLVMDMPKSLCAFGGLDAVTHALEAYVSVLASEFSDGQALQALKLLKENLPASYHEGSKNPVARERVHSAATIAGIAFANAFLGVCHSMAHKLGSQFHIPHGLANALLICNVIRYNANDNPTKQTAFSQYDRPQARRRYAEIADHLGLSAPGDRTAAKIEKLLAWLESIKAELGIPKSIREAGVQEADFLAHVDKLSEDAFDDQCTGANPRYPLISELKQILLDTYYGRDFTEGEVAAKKDVVAAPKAEKKAKKSA,soluble
17,MCRIPVMIVSQPKQLKALSDPTRIKILELLREHPMSVSEIAERLGRDKSTVYRHIKALEDAGLVEVVEKIGNEVVYGRVAYVFLLVPNSNKEIEDLRRAYLSREVEKLIEVLEDSGIRIRDKEKFRSIVQKVFRDIENQSQHILSRLMNSSFDEIALIHILNFLTFLYSHKYVEESKQLFKLLDI,soluble
18,MEVHDKIRTLREVNQWTQEEMAEKLEMSVNGYSKIERGKSGINLDKLRQIAQIFNIDVVELLAEQNRSFFFSIGDNTNNHHNIIGSDEMLVFENEKLRSLLDAKDELIRQKDSEIAVLKKLVILLEEKK,not soluble

# From the DeepSol protein solubility set
